Measurements published in the supplement of paper PMC11316812.
± gives the standard deviation of the averaged measurements.

What was measured:
[1] = tested on: MCF7; assay: percentage of EdU-negative (G0-arrested) nuclei per well, 72 h; higher = more G0 arrest; conditions: reference: sequence is the full UniProt precursor, the tested protein was the secreted form or ectodomain
[2] = tested on: hTERT-HMEC; assay: as above; conditions: reference: sequence is the full UniProt precursor, the tested protein was the secreted form or ectodomain
[3] = protein concentration 0.0225 µM
[4] = protein concentration 0.0295 µM
[5] = protein concentration 0.01825 µM
[6] = protein concentration 0.1825 µM
[7] = protein concentration 0.00525 µM
[8] = protein concentration 0.0525 µM
[9] = protein concentration 0.01207 µM
[10] = protein concentration 0.1207 µM
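Further: secreted proteins added to cultured cells, EdU pulse at the end, nuclei found by Hoechst imaging, EdU status from nuclear versus surrounding ring intensity ratio, PBS as neutral control.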

In the case of “MGFNLTFHLSYKFRLLLLLTLCLTVVGWATSNYFVGAIQEIPKAKEFMANFHKTLILGKGKTLTNEASTKKVELDNCPSVSPYLRGQSKLIFKPDLTLEEVQAENPKVSRGRYRPQECKALQRVAILVPHRNREKHLMYLLEHLHPFLQRQQLDYGIYVIHQAEGKKFNRAKLLNVGYLEALKEENWDCFIFHDVDLVPENDFNLYKCEEHPKHLVVGRNSTGYRLRYSGYFGGVTALSREQFFKVNGFSNNYWGWGGEDDDLRLRVELQRMKISRPLPEVGKYTMVFHTRDKGNEVNAERMKLLHQVSRVWRTDGLSSCSYKLVSVEHNPLYINITVDFWFGA”, the “percentage of EdU-negative” value [1, 3] is reported as 25.1 ± 1.2%, the “percentage of EdU-negative” value ([1]; protein concentration 0.225 µM) is reported as 27.9 ± 0.9% and the “percentage of EdU-negative” value [2, 3] is reported as 5.14 ± 0.69%. The “percentage of EdU-negative” value ([2]; protein concentration 0.225 µM) was 6.72 ± 0.53%.

In the case of “MLGLPWKGGLSWALLLLLLGSQILLIYAWHFHEQRDCDEHNVMARYLPATVEFAVHTFNQQSKDYYAYRLGHILNSWKEQVESKTVFSMELLLGRTRCGKFEDDIDNCHFQESTELNNTFTCFFTISTRPWMTQFSLLNKTCLEGFH [Q9H4G1]”, the “percentage of EdU-negative” value [1, 4] is reported as 27.1 ± 2.6%, the “percentage of EdU-negative” value ([1]; protein concentration 0.295 µM) is reported as 28.28 ± 0.082% and the “percentage of EdU-negative” value [2, 4] is reported as 4.64 ± 0.079%. For the same substance, the “percentage of EdU-negative” value ([2]; protein concentration 0.295 µM) was 4.42 ± 0.36%.

For “MWVLGIAATFCGLFLLPGFALQIQCYQCEEFQLNNDCSSPEFIVNCTVNVQDMCQKEVMEQSAGIMYRKSCASSAACLIASAGYQSFCSPGKLNSVCISCCNTPLCNGPRPKKRGSSASALRPGLRTTILFLKLALFSAHC [Q8N2G4]”, the “percentage of EdU-negative” value [1, 3] was 25.13 ± 0.22%, the “percentage of EdU-negative” value ([1]; protein concentration 0.225 µM) was 25.1 ± 1.1% and the “percentage of EdU-negative” value [2, 3] was 5.36 ± 1.2%. The “percentage of EdU-negative” value ([2]; protein concentration 0.225 µM) was 4.964 ± 0.041%.

For “MERASLIQKAKLAEQAERYEDMAAFMKGAVEKGEELSCEERNLLSVAYKNVVGGQRAAWRVLSSIEQKSNEEGSEEKGPEVREYREKVETELQGVCDTVLGLLDSHLIKEAGDAESRVFYLKMKGDYYRYLAEVATGDDKKRIIDSARSAYQEAMDISKKEMPPTNPIRLGLALNFSVFHYEIANSPEEAISLAKTTFDEAMADLHTLSEDSYKDSTLIMQLLRDNLTLWTADNAGEEGGEAPQEPQS”, the “percentage of EdU-negative” value [1, 3] was 25.3 ± 4.8%, the “percentage of EdU-negative” value ([1]; protein concentration 0.225 µM) was 20.9 ± 1.9% and the “percentage of EdU-negative” value [2, 3] was 4.93 ± 0.53%. The “percentage of EdU-negative” value ([2]; protein concentration 0.225 µM) was 5.22 ± 0.073%.

With “MAQRMTTQLLLLLVWVAVVGEAQTRIAWARTELLNVCMNAKHHKEKPGPEDKLHEQCRPWRKNACCSTNTSQEAHKDVSYLYRFNWNHCGEMAPACKRHFIQDTCLYECSPNLGPWIQQVDQSWRKERVLNVPLCKEDCEQWWEDCRTSYTCKSNWHKGWNWTSGFNKCAVGAACQPFHFYFPTPTVLCNEIWTHSYKVSNYSRGSGRCIQMWFDPAQGNPNEEVARFYAAAMSGAGPWAAWPFLLSLALMLLWLLS” the “percentage of EdU-negative” value [1, 3] was 25.4 ± 1.9%, the “percentage of EdU-negative” value ([1]; protein concentration 0.225 µM) was 24.4 ± 0.58% and the “percentage of EdU-negative” value [2, 3] was 15.7 ± 0.18%. For the same substance, the “percentage of EdU-negative” value ([2]; protein concentration 0.225 µM) was 10.3 ± 8.7%.

With “MKTALILLSILGMACAFSMKNLHRRVKIEDSEENGVFKYRPRYYLYKHAYFYPHLKRFPVQGSSDSSEENGDDSSEEEEEEEETSNEGENNEESNEDEDSEAENTTLSATTLGYGEDATPGTGYTGLAAIQLPKKAGDITNKATKEKESDEEEEEEEEGNENEESEAEVDENEQGINGTSTNSTEAENGNGSSGGDNGEEGEEESVTGANAEDTTETGRQGKGTSKTTTSPNGGFEPTTPPQVYRTTSPPFGKTTTVEYEGEYEYTGANEYDNGYEIYESENGEPRGDNYRAYEDEYSYFKGQGYDGYDGQNYYHHQ” the “percentage of EdU-negative” value [1, 5] was 21.2 ± 2.7%, the “percentage of EdU-negative” value [1, 6] was 24.2 ± 2.1% and the “percentage of EdU-negative” value [2, 5] was 5.184 ± 0.032%. The “percentage of EdU-negative” value [2, 6] was 5.29 ± 1.4%.

For P08572, the “percentage of EdU-negative” value ([1]; protein concentration 0.008 µM) was 24.1 ± 2.1%, the “percentage of EdU-negative” value ([1]; protein concentration 0.08 µM) was 25.4 ± 0.67% and the “percentage of EdU-negative” value ([2]; protein concentration 0.008 µM) was 4.54 ± 0.088%. The “percentage of EdU-negative” value ([2]; protein concentration 0.08 µM) was 5.63 ± 0.46%.

For Q9BZZ2, the “percentage of EdU-negative” value [1, 7] was 26.9 ± 2.3%, the “percentage of EdU-negative” value [1, 8] was 31.1 ± 2.4% and the “percentage of EdU-negative” value [2, 7] was 4.58 ± 0.46%. The “percentage of EdU-negative” value [2, 8] was 21.5 ± 2.5%.

“MALFVRLLALALALALGPAATLAGPAKSPYQLVLQHSRLRGRQHGPNVCAVQKVIGTNRKYFTNCKQWYQRKICGKSTVISYECCPGYEKVPGEKGCPAALPLSNLYETLGVVGSTTTQLYTDRTEKLRPEMEGPGSFTIFAPSNEAWASLPAEVLDSLVSNVNIELLNALRYHMVGRRVLTDELKHGMTLTSMYQNSNIQIHHYPNGIVTVNCARLLKADHHATNGVVHLIDKVISTITNNIQQIIEIEDTFETLRAAVAASGLNTMLEGNGQYTLLAPTNEAFEKIPSETLNRILGDPEALRDLLNNHILKSAMCAEAIVAGLSVETLEGTTLEVGCSGDMLTINGKAIISNKDILATNGVIHYIDELLIPDSAKTLFELAAESDVSTAIDLFRQAGLGNHLSGSERLTLLAPLNSVFKDGTPPIDAHTRNLLRNHIIKDQLASKYLYHGQTLETLGGKKLRVFVYRNSLCIENSCIAAHDKRGRYGTLFTMDRVLTPPMGTVMDVLKGDNRFSMLVAAIQSAGLTETLNREGVYTVFAPTNEAFRALPPRERSRLLGDAKELANILKYHIGDEILVSGGIGALVRLKSLQGDKLEVSLKNNVVSVNKEPVAEPDIMATNGVVHVITNVLQPPANRPQERGDELADSALEIFKQASAFSRASQRSVRLAPVYQKLLERMKH” was tested, and the “percentage of EdU-negative” value [1, 9] was 25.4 ± 0.46%, the “percentage of EdU-negative” value [1, 10] was 28.3 ± 0.63% and the “percentage of EdU-negative” value [2, 9] was 5.243 ± 0.015%. For the same substance, the “percentage of EdU-negative” value [2, 10] was 4.82 ± 0.7%.
